Assay results as given in US7888372B2, “Compositions and methods for modulating bone mineral deposition” (National Institutes of Health (NIH), priority 2001, dated 2011).

Columns and labels:
TNAP-/- mice = test: Administration of exogenous pyridoxal HCl to TNAP-/- mice; type: in vivo, mouse
From the text: At the time that we were developing the TNAP knock-out mice, Waymire et al. (Nature Genet. 11:45-51, 1995) independently reported the production of TNAP knock-out mice. […] These studies provided support to the hypothesis, set forth by Michael P. Whyte in his studies of human hypophosphatasia, that pyridoxal-5′-phosphate (vitamin B6) might be a natural substrate of TNAP. The rationale for this hypothesis is that pyridoxal-5′-phosphate cannot easily traverse biological membranes but that the related, more hydrophobic derivatives, pyridoxal and pyridoxamine can do so with much better kinetics. Thus, the presumption is that the cells that are deficient in TNAP cannot dephosphorylate pyridoxal-5′-phosphate on the outside of the cells leading to an intracellular deficiency of Vitamin B6 (Whyte, Endocrine Rev. 15:439-461, 1994). […] Control mice fed a vitamin B6-depleted diet developed epileptic seizures indistinguishable from those observed in TNAP−/− mice, abnormal apoptosis in the thymus and thinning of the nerve roots.

[1] = system: wild-type osteoblastic cells; test: Predicted effect of factors expressed or delivered on PPi and mRNA expression; type: cell-based, mouse
From the text: In order to test the hypothesis that PPi itself represents the signaling molecule that influences the transcription of the TNAP, PC-1 and ANK genes, we examine the levels of TNAP, PC-1 and ANK in calvarial tissue and osteoblasts from the mutant mouse lines and in the rescued mouse strains and by measure mRNA for TNAP, PC-1 and ANK by Northern blot analysis. Subsequently, cells from the different mutant strains and rescued mice are exposed to medium with different concentrations of PPi, or non-hydrolyzable analogues (phosphocitrate and the biphosphonate etidronate), for various time points and tested for changes in mRNA levels of the three genes. In addition, in vitro cytoplasmic and nuclear microinjection of PPi and analogues into osteoblastic cells are performed to examine the effect of intracellular PPi on these same genes. Measurements of mRNA changes are monitored by real-time RT-PCR using an ABI 7700 Sequence Detection system to facilitate these measurements.
These evaluations are done on osteoblastic cells from the different mutant mice and cross-bred strains with or without rescue of the deficient molecule after specifically transfecting the respective cDNAs back into the deficient cells. As a control for the transfections, we employ mutant enzyme-deficient PC-1 (Johnson et al., J. Bone Miner. Res. 14:883-892, 1999; Johnson et al., Arthritis Rheum. 42:1986-1997, 1999), mutant ANK (Ho et al., Science 289:265-270, 2000), and mutant enzyme-deficient TNAP (Wennberg et al., J. Bone Mineral Res., 2000). The table summarizes the experiments to be performed and the results that are expected.

TNAP ko osteoblasts = test: Mineralization of bone nodules in primary TNAP ko osteoblast cultures (von Kossa); type: cell-based, mouse; settings: added to the ko osteoblast culture medium
Method: Primary cultures of osteoblasts were isolated from calvariae of 1-4 day old pups that were hybrids of C57Bl/6×129/J mouse strains with wild-type, heterozygote and homozygote TNAP null genotypes. Isolation was performed by a slightly modified version of the time sequential collagenase technique described by Boonekamp et al. (Proc. Kon. Ned. Akad. Wet. B87:371-382, 1984). In brief, calvariae of the same genotype were pooled and three 10 minute incubations in 4 mM EDTA, 137 mM NaCl, 2.7 mM KCl, 3 mM NaH2PO4, pH 7.2, were performed, followed by seven 10 minute digestions in EDTA-free buffer, containing 180 units/ml collagenase type II (Worthington Biochemical Corporation, Lakewood, N.J.). All isolations were performed at 37° C. in a shaking water bath. The last five collagenase digestions, containing an enriched cell population of osteoblastic phenotype, were pooled and seeded at 4×10^4 cells/cm^2 in αMEM (Gibco BRL, Grand Island, N.Y.), containing 10% heat-inactivated FCS, penicillin (50 U/ml) and streptomycin ([…]).
To study mineralization, we used conditions under which we observed that osteoblasts normally formed von Kossa stain positive and alizarin red positive nodules at 7-10 days in culture. In brief, primary calvarial osteoblasts were cultured in complete αMEM media as described above, supplemented with β-glycerophosphate (10 mM) every third day and L-ascorbic acid (50 μg/ml) daily. MC3T3-E1 cells (Johnson et al., J. Bone Min. Res. 14:883-892, 1999) were maintained in the same medium, and for each experiment were plated at 80% confluence (1×10^6 cells in a 10 cm tissue-culture plastic dish in 5 ml) and received β-glycerophosphate and L-ascorbic acid as for primary osteoblasts above.
To evaluate the ability of primary osteoblasts to form and mineralize bone nodules in vitro, wild-type (wt), heterozygous and knock-out (ko) osteoblasts were cultured in media supplemented with ascorbic acid, using β-glycerophosphate as phosphate source. […] The extent of bone mineral deposition in these cultures was confirmed by quantifications of deposited calcium. […]

| Molecule | Predicted effect on PPi, Extracellular [1] | Predicted effect on PPi, Intracellular [1] | Predicted effect on mRNA expression, ANK [1] | Predicted effect on mRNA expression, TNAP [1] | Predicted effect on mRNA expression, PC-1 [1] | other results |
| --- | --- | --- | --- | --- | --- | --- |
| Cc1ncc(CO)c(C=O)c1O.Cl [pyridoxal HCl] | – | – | – | – | – | episodes of apnea (TNAP-/- mice): episodes of apnea ceased; hypomineralization and accumulation of osteoid (TNAP-/- mice): continued to worsen with age; life span (TNAP-/- mice): increased the life span; myelinization of lumbar nerve roots (TNAP-/- mice): improved; onset of epileptic attacks (TNAP-/- mice): delayed the onset of epileptic attacks |
| ANK: factor expressed in wild-type osteoblastic cells by transfecting the cDNA (Table 1) | ⇑ | ↓ | ↓ | ⇑ | – | – |
| heat-inactivated recombinant TNAP: heat-inactivated recombinant TNAP (protein, UniProt P05186 18-501, looked up, heat-inactivated) Alkaline phosphatase, …: LVPEKEKDPKYWRDQAQETLKYALELQKLNTNVAKNVIMFLGDGMGVSTVTAARILKGQLHHNPGEETRLEMDKFPFVALSKTYNTNAQVPDSAGTATAYLCGVKANEGTVGVSAATERSRCNTTQGNEVTSILRWAKDAGKSVGIVTTTRVNHATPSAAYAHSADRDWYSDNEMPPEALSQGCKDIAYQLMHNIRDIDVIMGGGRKYMYPKNKTDVEYESDEKARGTRLDGLDLVDTWKSFKPRYKHSHFIWNRTELLTLDPHNVDYLLGLFEPGDMQYELNRNNVTDPSLSEMVVVAIQILRKNPKGFFLLVEGGRIDHGHHEGKAKQALHEAVEMDRAIGQAGSLTSSEDTLTVVTADHSHVFTFGGYTPRGNSIFGLAPMLSDTDKKPFTAILYGNGPGYKVVGGERENVSMVDYAHNNYQAQSAVPLRHETHGGEDVAVFSKGPMAHLLHGVHEQNYVPHVMAYAACIGANLGHCAPAS | – | – | – | – | – | induction of mineralization (TNAP ko osteoblasts): neither heat-inactivated recombinant TNAP, nor enzymatically inactive mutants of TNAP, such as [R54C]TNAP or [V365I]TNAP, were able to induce mineralization |
| [R54C]TNAP: enzymatically inactive mutant of TNAP (protein, UniProt P05186 18-501, looked up, variant R54C) Alkaline phosphatase, …: LVPEKEKDPKYWRDQAQETLKYALELQKLNTNVAKNVIMFLGDGMGVSTVTAACILKGQLHHNPGEETRLEMDKFPFVALSKTYNTNAQVPDSAGTATAYLCGVKANEGTVGVSAATERSRCNTTQGNEVTSILRWAKDAGKSVGIVTTTRVNHATPSAAYAHSADRDWYSDNEMPPEALSQGCKDIAYQLMHNIRDIDVIMGGGRKYMYPKNKTDVEYESDEKARGTRLDGLDLVDTWKSFKPRYKHSHFIWNRTELLTLDPHNVDYLLGLFEPGDMQYELNRNNVTDPSLSEMVVVAIQILRKNPKGFFLLVEGGRIDHGHHEGKAKQALHEAVEMDRAIGQAGSLTSSEDTLTVVTADHSHVFTFGGYTPRGNSIFGLAPMLSDTDKKPFTAILYGNGPGYKVVGGERENVSMVDYAHNNYQAQSAVPLRHETHGGEDVAVFSKGPMAHLLHGVHEQNYVPHVMAYAACIGANLGHCAPAS | – | – | – | – | – | induction of mineralization (TNAP ko osteoblasts): nor enzymatically inactive mutants of TNAP, such as [R54C]TNAP or [V365I]TNAP, were able to induce mineralization |
| PC-1: factor expressed in wild-type osteoblastic cells by transfecting the cDNA (Table 1) (protein) MERDGDQAGHGPRHGSAGNGRELESPAAASLLAPMDLGEEPLEKAERARPAKDPNTYKVLSLVLSVCVLTTILGCIFGLKPSCAKEVKSCKGRCFERTFSNCRCDAACVSLGNCCLDFQETCVEPTHIWTCNKFRCGEKRLSRFVCSCADDCKTHNDCCINYSSVCQDKKSWVEETCESIDTPECPAEFESPPTLLFSLDGFRAEYLHTWGGLLPVISKLKNCGTYTKNMRPMYPTKTFPNHYSIVTGLYPESHGIIDNKMYDPKMNASFSLKSKEKFNPLWYKGQPIWVTANHQEVKSGTYFWPGSDVEIDGILPDIYKVYNGSVPFEERILAVLEWLQLPSHERPHFYTLYLEEPDSSGHSHGPVSSEVIKALQKVDRLVGMLMDGLKDLGLDKCLNLILISDHGMEQGSCKKYVYLNKYLGDVNNVKVVYGPAARLRPTDVPETYYSFNYEALAKNLSCREPNQHFRPYLKPFLPKRLHFAKSDRIEPLTFYLDPQWQLALNPSERKYCGSGFHGSDNLFSNMQALFIGYGPAFKHGAEVDSFENIEVYNLMCDLLGLIPAPNNGSHGSLNHLLKKPIYNPSHPKEEGFLSQCPIKSTSNDLGCTCDPWIVPIKDFEKQLNLTTEDVDDIYHMTVPYGRPRILLKQHHVCLLQQQQFLTGYSLDLLMPLWASYTFLRNDQFSRDDFSNCLYQDLRIPLSPVHKCSYYKSNSKLSYGFLTPPRLNRVSNHIYSEALLTSNIVPMYQSFQVIWHYLHDTLLQRYAHERNGINVVSGPVFDFDYDGRYDSLEILKQNSRVIRSQEILIPTHFFIVLTSCKQLSETPLECSALESSAYILPHRPDNIESCTHGKRESSWVEELLTLHRARVTDVELITGLSFYQDRQESVSELLRLKTHLPIFSQED | ⇑ | ⇑ | – | ⇑ | ↓ | – |
| TNAP: factor expressed in wild-type osteoblastic cells by transfecting the cDNA (Table 1) (protein) FVPEKERDPSYWRQQAQETLKNALKLQKLNTNVAKNVIMFLGDGMGVSTVTAARILKGQLHHNTGEETRLEMDKFPFVALSKTYNTNAQVPDSAGTATAYLCGVKANEGTVGVSAATERTRCNTTQGNEVTSILRWAKDAGKSVGIVTTTRVNHATPSAAYAHSADRDWYSDNEMPPEALSQGCKDIAYQLMHNIKDIDVIMGGGRKYMYPKNRTDVEYELDEKARGTRLDGLDLISIWKSFKPRHKHSHYVWNRTELLALDPSRVDYLLGLFEPGDMQYELNRNNLTDPSLSEMVEVALRILTKNLKGFFLLVEGGRIDHGHHEGKAKQALHEAVEMDQAIGKAGAMTSQKDTLTVVTADHSHVFTFGGYTPRGNSIFGLAPMVSDTDKKPFTAILYGNGPGYKVVDGERENVSMVDYAHNNYQAQSAVPLRHETHGGEDVAVFAKGPMAHLLHGVHEQNYIPHVMAYASCIGANLDHCAWAG | ↓ | ↓ | ⇑ | – | ⇑ | – |
| iPPiase: inorganic pyrophosphatase, factor expressed in wild-type osteoblastic cells (Table 1) (protein, UniProt Q15181 2-289, looked up) Inorganic pyrophosphatase: SGFSTEERAAPFSLEYRVFLKNEKGQYISPFHDIPIYADKDVFHMVVEVPRWSNAKMEIATKDPLNPIKQDVKKGKLRYVANLFPYKGYIWNYGAIPQTWEDPGHNDKHTGCCGDNDPIDVCEIGSKVCARGEIIGVKVLGILAMIDEGETDWKVIAINVDDPDAANYNDINDVKRLKPGYLEATVDWFRRYKVPDGKPENEFAFNAEFKDKDFAIDIIKSTHDHWKALVTKKTNGKGISCMNTTLSESPFKCDPDAARAIVDALPPPCESACTVPTDVDKWFHHQKN | = | ↓ | ⇑ | ↓ | ⇑ | – |
